This note sets out measurements from paper PMC10350030 (bioRxiv, 2023).

For this assay, the target named is biotin-Aβ42 (UniProt P05067 672-713, biotin (site not stated)). In words: single-molecule TIRF microscopy.
Sequence of biotin-Aβ42 (P05067 672-713): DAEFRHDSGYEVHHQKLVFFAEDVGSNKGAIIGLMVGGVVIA

B1: Cy3-labeled ceruloplasmin (enzyme, human, UniProt P00450 20-1065, looked up)
chain: KEKHYYIGIIETTWDYASDHGEKKLISVDTEHSNIYLQNGPDRIGRLYKKALYLQYTDETFRTTIEKPVWLGFLGPIIKAETGDKVYVHLKNLASRPYTFHSHGITYYKEHEGAIYPDNTTDFQRADDKVYPGEQYTYMLLATEEQSPGEGDGNCVTRIYHSHIDAPKDIASGLIGPLIICKKDSLDKEKEKHIDREFVVMFSVVDENFSWYLEDNIKTYCSEPEKVDKDNEDFQESNRMYSVNGYTFGSLPGLSMCAEDRVKWYLFGMGNEVDVHAAFFHGQALTNKNYRIDTINLFPATLFDAYMVAQNPGEWMLSCQNLNHLKAGLQAFFQVQECNKSSSKDNIRGKHVRHYYIAAEEIIWNYAPSGIDIFTKENLTAPGSDSAVFFEQGTTRIGGSYKKLVYREYTDASFTNRKERGPEEEHLGILGPVIWAEVGDTIRVTFHNKGAYPLSIEPIGVRFNKNNEGTYYSPNYNPQSRSVPPSASHVAPTETFTYEWTVPKEVGPTNADPVCLAKMYYSAVEPTKDIFTGLIGPMKICKKGSLHANGRQKDVDKEFYLFPTVFDENESLLLEDNIRMFTTAPDQVDKEDEDFQESNKMHSMNGFMYGNQPGLTMCKGDSVVWYLFSAGNEADVHGIYFSGNTYLWRGERRDTANLFPQTSLTLHMWPDTEGTFNVECLTTDHYTGGMKQKYTVNQCRRQSEDSTFYLGERTYYIAAVEVEWDYSPQREWEKELHHLQEQNVSNAFLDKGEFYIGSKYKKVVYRQYTDSTFRVPVERKAEEEHLGILGPQLHADVGDKVKIIFKNMATRPYSIHAHGVQTESSTVTPTLPGETLTYVWKIPERSGAGTEDSACIPWAYYSTVDQVKDLYSGLIGPLIVCRRPYLKVFNPRRKLEFALLFLVFDENESWYLDDNIKTYSDHPEKVNKDDEEFIESNKMHAINGRMFGNLQGLTMHVGDEVNWYLMGMGNEIDLHTVHFHGHSFQYKHRGVYSSDVFDIFPGTYQTLEMFPRTPGIWLLHCHVTDHIHAGMETTYTVLQNEDTKSG
modifications: Cy3 label (site not stated)
On to B1, for which the “half-lifetime of transient binding” value was around 14.6 s.
